From patent US5759768A, “Assays for factors affecting circularization of DNA, assays for factors affecting DNA integration, factors, and uses thereof” (priority 1995, dated 1998)

B1: Proteinase K: an enzyme such as proteinase K (protein, UniProt P06873 106-384, looked up)
Proteinase K: AAQTNAPWGLARISSTSPGTSTYYYDESAGQGSCVYVIDTGIEASHPEFEGRAQMVKTYYYSSRDGNGHGTHCAGTVGSRTYGVAKKTQLFGVKVLDDNGSGQYSTIIAGMDFVASDKNNRNCPKGVVASLSLGGGYSSSVNSAAARLQSSGVMVAVAAGNNNADARNYSPASEPSVCTVGASDRYDRRSSFSNYGSVLDIFGPGTSILSTWIGGSTRSISGTSMATPHVAGLAAYLMTLGKTTAASACRYIADTANKGDLSNIPFGTVNLLAYNNYQA
B2: T4 DNA ligase: phage T4 ligase (protein, UniProt P00970 1-487, looked up)
DNA ligase: MILKILNEIASIGSTKQKQAILEKNKDNELLKRVYRLTYSRGLQYYIKKWPKPGIATQSFGMLTLTDMLDFIEFTLATRKLTGNAAIEELTGYITDGKKDDVEVLRRVMMRDLECGASVSIANKVWPGLIPEQPQMLASSYDEKGINKNIKFPAFAQLKADGARCFAEVRGDELDDVRLLSRAGNEYLGLDLLKEELIKMTAEARQIHPEGVLIDGELVYHEQVKKEPEGLDFLFDAYPENSKAKEFAEVAESRTASNGIANKSLKGTISEKEAQCMKFQVWDYVPLVEIYSLPAFRLKYDVRFSKLEQMTSGYDKVILIENQVVNNLDEAKVIYKKYIDQGLEGIILKNIDGLWENARSKNLYKFKEVIDVDLKIVGIYPHRKDPTKAGGFILESECGKIKVNAGSGLKDKAGVKSHELDRTRIMENQNYYIGKILECECNGWLKSDGRTDYVKLFLPIAIRLREDKTKANTFEDVFGDFHEVTGL
B3: RNase A: RNase A (protein, UniProt P61823 27-150, looked up)
Ribonuclease pancreatic: KETAAAKFERQHMDSSTSAASSSNYCNQMMKSRNLTKDRCKPVNTFVHESLADVQAVCSQKNVACKNGQTNCYQSYSTMSITDCRETGSSKYPNCAYKTTQANKHIIVACEGNPYVPVHFDASV

Columns and labels:
Type in all cases: biochemical, HIV-1
[1] = tested on: linear viral DNA (circularization); settings: pretreatment for 30 minutes prior to addition of ATP
Method: (§1) The chronically HIV-1 infected Molt IIIB human T cell line (HTLV IIIB virus strain) was the source of virus for cell-free infections. This human T cell line constitutively produces a low level of the HTLV-111B strain of HIV-1. Culture supernatant containing a high concentration of virus was prepared by incubating 300×10^6 Molt IIIB cells in 50 ml fresh RPMI 1640 medium containing 20% fetal calf serum and 10 ng of phorbol 12-myristate 13-acetate per ml for 20-24 hours. […] Cytoplasmic extracts (3 ml) were prepared 4-4.5 hours post-infection, by a modification of the procedure of Brown et al., Cell 49: 342-356 (1987).
At specified times after infection, cells were washed twice with buffer K (20 mM Hepes, pH 7.4, 150 mM KCl, 5 mM MgCl2, 1 mM dithiothreitol, […]) and then lysed at a concentration of 33×10^6 cells per ml in the same buffer containing 0.025% digitonin or 0.025% Triton X-100. Cells were extracted for 10 minutes at room temperature, and the lysate was centrifuged at 1000×g for 3 minutes, and is referred to as "cytoplasmic extract". Cytoplasmic extract was the source of viral DNA for analyses in the assays described below. […]
Cell extracts were prepared from cells four to five hours after infection with HIV-1, using the above-described methods to yield fully functional viral preintegration complexes. […] Therefore, only LTR-containing DNA fragments are detected. […]

preintegration complexes = test: Circularization mediated by partially purified preintegration complexes; settings: pretreatment of uninfected SupT1 extracts
Method: Viral preintegration complexes were partially purified from cytoplasmic extracts by Sephacryl S400 gel filtration chromatography. Cytoplasmic extracts (0.8 ml) were loaded onto a 22-ml Sephacryl S400 (Pharmacia) column, 28 cm in height, equilibrated in buffer K containing 0.5% Triton X-100 at 4° C. Fractions (0.5 ml) were collected at a flow rate of approximately 0.2 ml/min.
The linear viral DNA present in cytoplasmic extracts is a part of the nucleoprotein preintegration complex that can be separated from the bulk of cellular proteins by gel filtration chromatography [Farnet and Haseltine, J. Virol., 65: 1910-1915 (1991)]. Preintegration complexes were partially purified by Sephacryl S400 column chromatography and tested for the ability to mediate the circularization of viral DNA. Cytoplasmic extracts (1 ml, vol) were fractionated by Sephacryl S-400 gel filtration chromatography as previously described. The void volume fractions of the column, containing the peak of viral DNA, were pooled (total volume, 1.5 ml) and incubated as follows with the results shown in FIG. 20. […]

[2] = tested on: viral DNA integrated into .phi.X174 target DNA; settings: for Relative activity, % of standard: pretreatment/37° C./30 min, target DNA 10 μg/ml
Method: as §1
At specified times after infection, cells were washed twice with buffer K (20 mM Hepes, pH 7.4, 150 mM KCl, 5 mM MgCl2, 1 mM dithiothreitol, […]) and then lysed at a concentration of 33×10^6 cells per ml in the same buffer containing 0.025% digitonin or 0.025% Triton X-100. Cells were extracted for 10 minutes at room temperature, and the lysate was centrifuged at 1000×g for 3 minutes, and is referred to as "cytoplasmic extract". Cytoplasmic extract was the source of viral DNA for analyses in the assays described below. The pellet from the initial low-speed centrifugation contained cell debris and intact nuclei and is called the "nuclear pellet". Cell extracts from uninfected SupT1 cells were prepared in the same manner.
DNA samples were layered on 0.8% agarose gels and electrophoresed at 1 V/cm for 15 hour in Tris/acetate/EDTA buffer. After electrophoresis, DNA was blotted by capillary action onto nitrocellulose (0.45 μm, Schleicher & Schuell). […]
Cytoplasmic extracts prepared from SupT1 cells 4 hours after infection with HIV-1 were incubated with exogenously added target DNA under integration reaction conditions. Products of the reactions were analyzed by Southern blot hybridization. The time course of integration into linear .phi.X174 DNA target was determined. […] Integration was detected by the shift of linear viral DNA on Southern blots from the characteristic 9.7-kilobase (kb) position to a position corresponding to viral DNA plus target DNA.

[3] = tested on: purified linear viral DNA; test: Ligation of purified linear viral DNA by phage T4 DNA ligase and Klenow fragment; settings: T4 DNA ligase alone
Method: Linear viral DNA was purified from cytoplasmic extracts of cells 4 hours post-infection as described above. In FIG. 22, a purified linear viral DNA was added to cytoplasmic extracts from uninfected SupT1 cells and incubated at 37° C. for 45 minutes. The uninfected SupT1 cells used for the preparation of extracts were either untreated (lanes 3-11) or cultured in the presence of 10 ng/ml phorbol 12-myristate 13-acetate for six hours prior to extraction (lane 2). […] Lanes 2-11: reaction products following incubation of purified linear viral DNA in uninfected extracts containing 1 mM ATP (lanes 2 and 3), nothing added (lane 4), 1 mM dATP (lane 5), 1 mM UTP (lane 6), 1 mM CTP (lane 7), 1 mM GTP (lane 8), 1 mM ATPγS (lane 9), or 1 mM ADP (lane 10). Lane 11: uninfected SupT1 cell extract was treated with proteinase K for 10 minutes at 37° C., then linear viral DNA was added and incubation continued for 45 minutes. In FIG. 23, lanes 1, 2, 4 and 5: purified linear viral DNA was incubated with T4 DNA ligase (lane 1), T4 polynucleotide kinase and T4 DNA ligase (lane 2), Klenow fragment of E. coli DNA polymerase I and T4 DNA ligase (lane 3), or Klenow fragment, T4 polynucleotide kinase, and T4 DNA ligase (lane 4). Lanes 3 and 6: in vitro circularization reaction products generated in cell extracts, included as size standards. […]

| Molecule | circle formation [1] | ability of uninfected extracts to restore 1-LTR and simple 2-LTR circle formation (preintegration complexes) | integration in vitro ([2]; pretreatment of extracts prior to incubation with target DNA) | Relative activity, % of standard [2] | ligation of the ends of linear viral DNA [3] |
| --- | --- | --- | --- | --- | --- |
| B1 | abolished circle formation | abolished the ability of the extracts to restore 1-LTR and simple 2-LTR circle formation | abolished integration in vitro | 0 % of standard | – |
| B2 | – | – | – | – | unable to ligate the ends of the linear DNA molecules |
| B3 | – | – | – | 100 % of standard | – |
